In CN116262790A (TAIZE HUIKANG BIOMEDICAL CO LTD; BEIJING MIANYI FANGZHOU …, dated 2023):

T1: 人CD27蛋白 (Cat: 10039-H03H, Sino Biological Inc.) (human, UniProt P26842 20-192)
T1 construct: Bought recombinant protein coated on the SPR chip
T1 sequence (looked up): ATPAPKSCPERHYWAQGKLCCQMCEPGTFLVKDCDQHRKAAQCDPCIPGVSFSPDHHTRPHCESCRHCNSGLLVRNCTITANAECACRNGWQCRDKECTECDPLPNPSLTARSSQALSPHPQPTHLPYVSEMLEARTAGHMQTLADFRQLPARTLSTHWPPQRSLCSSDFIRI

T2: 人CD27 (HEK::CD27细胞表达) (human, UniProt P26842 20-260)
T2 construct: whole, on cells; also called hCD27; 表达人CD27的细胞
T2 sequence (looked up): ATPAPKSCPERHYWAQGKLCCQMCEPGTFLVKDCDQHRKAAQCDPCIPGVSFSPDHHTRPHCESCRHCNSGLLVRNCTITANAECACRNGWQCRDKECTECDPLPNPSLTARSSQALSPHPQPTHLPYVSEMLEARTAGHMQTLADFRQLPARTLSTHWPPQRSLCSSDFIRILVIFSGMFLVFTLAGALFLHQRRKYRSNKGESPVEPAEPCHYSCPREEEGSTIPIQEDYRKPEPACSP


How the values were obtained:
[1] = target: T1, 人CD27蛋白 (Cat: 10039-H03H, Sino …); test: SPR (Reichert4), human CD27 protein on chip, antibody at 1.25e-8 as analyte
[2] = target: T1, 人CD27蛋白 (Cat: 10039-H03H, Sino …); test: SPR (Reichert4), human CD27 protein on chip, antibody at 2.50e-8 as analyte
[3] = target: T1, 人CD27蛋白 (Cat: 10039-H03H, Sino …); test: SPR (Reichert4), human CD27 protein on chip, antibody at 5.00e-8 as analyte
[4] = target: T1, 人CD27蛋白 (Cat: 10039-H03H, Sino …); test: SPR (Reichert4), human CD27 protein on chip, antibody at 6.25e-9 as analyte
[5] = target: 人CD27 (HEK::CD27细胞表达) (human) (UniProt P26842); test: flow cytometry on cells expressing human CD27; set-up: concentration or dose not given beside the values
人CD27 (HEK::CD27细胞表达) = target: T2, 人CD27 (HEK::CD27细胞表达); test: flow cytometry on HEK::CD27 cells, 10 ng and 100 ng antibody

| Kd [1] [nM] | koff [1] [s⁻¹] | kon [1] [M⁻¹ s⁻¹] | Kd [2] [nM] | koff [2] [s⁻¹] | kon [2] [M⁻¹ s⁻¹] | Kd [3] [nM] | koff [3] [s⁻¹] | kon [3] [M⁻¹ s⁻¹] | Kd [4] [nM] | koff [4] [s⁻¹] | kon [4] [M⁻¹ s⁻¹] | 结合率 [5] [%] | binding result (人CD27 (HEK::CD27细胞表达)) | Binder |
| --- | --- | --- | --- | --- | --- | --- | --- | --- | --- | --- | --- | --- | --- | --- |
| 0.00185 | 2.14e-07 | 116000 | 0.00185 | 2.14e-07 | 116000 | 0.00185 | 2.14e-07 | 116000 | 0.00185 | 2.14e-07 | 116000 | – | – | Varlilumab (antibody, V domains shown) VH: QVQLVESGGGVVQPGRSLRLSCAASGFTFSSYDMHWVRQAPGKGLEWVAVIWYDGSNKYYADSVKGRFTISRDNSKNTLYLQMNSLRAEDTAVYYCARGSGNWGFFDYWGQGTLVTVSS VL: DIQMTQSPSSLSASVGDRVTITCRASQGISRWLAWYQQKPEKAPKSLIYAASSLQSGVPSRFSGSGSGTDFTLTISSLQPEDFATYYCQQYNTYPRTFGQGTKVEIKR |
| 0.514 | 9.69e-05 | 188000 | 0.514 | 9.69e-05 | 188000 | 0.514 | 9.69e-05 | 188000 | 0.514 | 9.69e-05 | 188000 | > 85 | – | 6D8 (antibody, V domains shown, also called 6D8抗体; 鼠抗人CD27单克隆抗体6D8) VH: QIQLVQSGPELKKPGETVKISCKASGYTFTNYGMNWVKQAPGKGLKWMGWINTNTGEPTYADDFKGRFAFSLETSATTAYLQINNLKNEDTATYFCAREGDGFDSWGQGTTLTVSS VL: QFVLTQSPAIMSASPGEKVTMTCSATSSVNYMHWYQQKSGTSPKRWIYDTSRLASGVPARFSGSGSGTSYSLTISSMEAEDAATYYCQQWNTNPWTFGGGTKLEIK |
| – | – | – | – | – | – | – | – | – | – | – | – | – | binds | 6D8-G98A (antibody, human IgG4, V domains shown, also called 嵌合的6D8-G98A; 6D8-G98A(人鼠嵌合抗体)) VH: QIQLVQSGPELKKPGETVKISCKASGYTFTNYGMNWVKQAPGKGLKWMGWINTNTGEPTYADDFKGRFAFSLETSATTAYLQINNLKNEDTATYFCAREGDAFDSWGQGTTLTVSS VL: QFVLTQSPAIMSASPGEKVTMTCSATSSVNYMHWYQQKSGTSPKRWIYDTSRLASGVPARFSGSGSGTSYSLTISSMEAEDAATYYCQQWNTNPWTFGGGTKLEIK |
